This is an account of results in the supplement of paper PMC10567573.

B1: IKZF1 (parent)
chain: YHSQDRYEFSSHITRGEHRFHMS
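Also: lentivirally expressed fusions sorted by FACS into six bins by GFP to DsRed ratio, PSI derived from sequencing read proportions per bin multiplied by bin number.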

Variants of B1 are the subject of the data set. In words: protein stability index of a GFP-peptide fusion (GPS, HEK-293T) (PSI 1-6); higher = more stable. The note with it: c terminus: native.
With YHSQDRYEFSSHITRGEWRFHMS [H18W], the protein stability index was determined as 2.34.

Consider YHSQDRYEFSSHITRGEYRFHMS [H18Y], for which the protein stability index worked out at 1.83.

Regarding YHSQDRYEFSSHITRGETRFHMS [H18T], the protein stability index came to 1.92.

Turning to YHSQDRYEFSSHITRGEVRFHMS [H18V], the protein stability index is 1.68.

Turning to YHSQDRYEFSSHITRGESRFHMS [H18S], the protein stability index is 1.83.

Consider YHSQDRYEFSSHITRGEQRFHMS [H18Q], for which the protein stability index is 1.72.

With YHSQDRYEFSSHITRGERRFHMS [H18R], the protein stability index is 1.82.

As for YHSQDRYEFSSHITRGEHRVHMS [F20V], the protein stability index came to 1.39.

On to YHSQDRYEFSSHITRGEHRMHMS [F20M], for which the protein stability index came to 1.83.

On to YHSQDRYEFSSHITRGEHRHHMS [F20H], for which the protein stability index was 1.93.

Regarding YHSQDRYEFSSHITRGEHRNHMS [F20N], the protein stability index came out at 2.56.

As to YHSQDRYEFSSHITRGEHRQHMS [F20Q], the protein stability index came to 2.5.

In the case of YHSQDRYEFSSHITRGEHRPHMS [F20P], the protein stability index was 1.59.

YHSQDRYEFSSHITRGEHRKHMS [F20K]: the protein stability index was 2.38.

For YHSQDRYEFSSHITRGEHRSHMS [F20S], the protein stability index was 2.05.

As to YHSQDRYEFSSHITRGEHRDHMS [F20D], the protein stability index came out at 1.76.

Consider YHSQDRYEFSSHITRGEHRRHMS [F20R], for which the protein stability index is 2.36.

YHSQDRYEFSSHITRGEHRAHMS [F20A]: the protein stability index is 2.15.

In the case of YHSQDRYEFSSHITRGEHRCHMS [F20C], the protein stability index came out at 2.12.

As for YHSQDRYEFSSHITRGEHRWHMS [F20W], the protein stability index turned out to be 2.93.

In the case of YHSQDRYEFSSHITRGEHREHMS [F20E], the protein stability index amounted to 1.42.

Take YHSQDRYEFSSHITRGEHRLHMS [F20L]: the protein stability index is 2.37.

Consider YHSQDRYEFSSHITRGEHRYHMS [F20Y], for which the protein stability index came out at 1.75.

In the case of YHSQDRYEFSSHITRGEHRTHMS [F20T], the protein stability index turned out to be 1.75.

Take YHSQDRYEFSSHITRGEHRGHMS [F20G]: the protein stability index was determined as 1.67.

As for YHSQDRYEFSSHITRGEHRIHMS [F20I], the protein stability index is 3.73.

Regarding YHSQDRYEFSSHITRGEHRFRMS [H21R], the protein stability index is 2.88.

Regarding YHSQDRYEFSSHITRGEHRFNMS [H21N], the protein stability index amounted to 2.27.

YHSQDRYEFSSHITRGEHRFGMS [H21G]: the protein stability index amounted to 2.11.

With YHSQDRYEFSSHITRGEHRFEMS [H21E], the protein stability index was 1.44.

As to YHSQDRYEFSSHITRGEHRFAMS [H21A], the protein stability index is 2.43.

Take YHSQDRYEFSSHITRGEHRFIMS [H21I]: the protein stability index came to 3.07.

Take YHSQDRYEFSSHITRGEHRFSMS [H21S]: the protein stability index turned out to be 1.89.

Turning to YHSQDRYEFSSHITRGEHRFMMS [H21M], the protein stability index was 1.6.

Take YHSQDRYEFSSHITRGEHRFVMS [H21V]: the protein stability index is 2.25.

As to YHSQDRYEFSSHITRGEHRFKMS [H21K], the protein stability index stood at 1.37.

Regarding YHSQDRYEFSSHITRGEHRFLMS [H21L], the protein stability index worked out at 2.13.

As for YHSQDRYEFSSHITRGEHRFCMS [H21C], the protein stability index worked out at 1.69.

Turning to YHSQDRYEFSSHITRGEHRFTMS [H21T], the protein stability index was 2.04.

In the case of YHSQDRYEFSSHITRGEHRFWMS [H21W], the protein stability index stood at 1.81.

In the case of YHSQDRYEFSSHITRGEHRFDMS [H21D], the protein stability index amounted to 2.15.

Regarding YHSQDRYEFSSHITRGEHRFPMS [H21P], the protein stability index was found to be 1.89.

Take YHSQDRYEFSSHITRGEHRFFMS [H21F]: the protein stability index came out at 1.98.

Turning to YHSQDRYEFSSHITRGEHRFQMS [H21Q], the protein stability index came out at 2.22.

With YHSQDRYEFSSHITRGEHRFYMS [H21Y], the protein stability index was 1.76.

Take YHSQDRYEFSSHITRGEHRFHMI [S23I]: the protein stability index turned out to be 2.18.

Turning to YHSQDRYEFSSHITRGEHRFHMH [S23H], the protein stability index was found to be 2.23.

Take YHSQDRYEFSSHITRGEHRFHMR [S23R]: the protein stability index stood at 1.61.

As to YHSQDRYEFSSHITRGEHRFHMP [S23P], the protein stability index turned out to be 2.

Consider YHSQDRYEFSSHITRGEHRFHMY [S23Y], for which the protein stability index worked out at 2.42.

In the case of YHSQDRYEFSSHITRGEHRFHMW [S23W], the protein stability index is 2.5.

As to YHSQDRYEFSSHITRGEHRFHMQ [S23Q], the protein stability index amounted to 2.68.

YHSQDRYEFSSHITRGEHRFHMV [S23V]: the protein stability index amounted to 1.97.

With YHSQDRYEFSSHITRGEHRFHMN [S23N], the protein stability index was found to be 2.08.

For the variant YHSQDRYEFSSHITRGEHRFHML [S23L], the protein stability index was 1.68.

On to YHSQDRYEFSSHITRGEHRFHMD [S23D], for which the protein stability index was 1.5.

Consider YHSQDRYEFSSHITRGEHRFHMC [S23C], for which the protein stability index is 1.94.

In the case of YHSQDRYEFSSHITRGEHRFHMF [S23F], the protein stability index turned out to be 2.01.

With YHSQDRYEFSSHITRGEHRFHMA [S23A], the protein stability index came to 1.8.

As for YHSQDRYEFSSHITRGEHRFHMK [S23K], the protein stability index came out at 2.28.

For the variant YHSQDRYEFSSHITRGEHRFHME [S23E], the protein stability index came out at 1.5.

On to YHSQDRYEFSSHITRGEHRFHMG [S23G], for which the protein stability index was 2.

With YHSQDRYEFSSHITRGEHRFHMM [S23M], the protein stability index was determined as 1.62.

In the case of YHSQDRYEFSSHITRGEHRFHMT [S23T], the protein stability index was determined as 2.02.

With YHSQDRYEFSSHITRGEHPFHMS [R19P], the protein stability index turned out to be 1.77.

With YHSQDRYEFSSHITRGEHHFHMS [R19H], the protein stability index is 1.3.

Take YHSQDRYEFSSHITRGEHQFHMS [R19Q]: the protein stability index is 2.28.

With YHSQDRYEFSSHITRGEHGFHMS [R19G], the protein stability index was found to be 1.89.

Regarding YHSQDRYEFSSHITRGEHMFHMS [R19M], the protein stability index was 1.92.

Consider YHSQDRYEFSSHITRGEHEFHMS [R19E], for which the protein stability index is 3.06.

YHSQDRYEFSSHITRGEHKFHMS [R19K]: the protein stability index was 1.95.

Regarding YHSQDRYEFSSHITRGEHFFHMS [R19F], the protein stability index worked out at 2.39.

Take YHSQDRYEFSSHITRGEHYFHMS [R19Y]: the protein stability index is 2.16.

In the case of YHSQDRYEFSSHITRGEHDFHMS [R19D], the protein stability index amounted to 1.93.

Take YHSQDRYEFSSHITRGEHNFHMS [R19N]: the protein stability index stood at 2.27.

On to YHSQDRYEFSSHITRGEHWFHMS [R19W], for which the protein stability index stood at 2.84.

With YHSQDRYEFSSHITRGEHLFHMS [R19L], the protein stability index amounted to 2.54.

For the variant YHSQDRYEFSSHITRGEHSFHMS [R19S], the protein stability index was 1.99.

On to YHSQDRYEFSSHITRGEHTFHMS [R19T], for which the protein stability index is 1.92.

For the variant YHSQDRYEFSSHITRGEHVFHMS [R19V], the protein stability index came out at 2.16.

With YHSQDRYEFSSHITRGEHCFHMS [R19C], the protein stability index came to 3.13.

For YHSQDRYEFSSHITRGEHIFHMS [R19I], the protein stability index worked out at 2.17.

On to YHSQDRYEFSSHITRGEHAFHMS [R19A], for which the protein stability index was determined as 2.47.

As for YHSQDRYEFSSHITRGEHRFHNS [M22N], the protein stability index turned out to be 2.06.

Take YHSQDRYEFSSHITRGEHRFHQS [M22Q]: the protein stability index worked out at 2.11.

Turning to YHSQDRYEFSSHITRGEHRFHDS [M22D], the protein stability index stood at 1.94.

For the variant YHSQDRYEFSSHITRGEHRFHPS [M22P], the protein stability index worked out at 2.01.

In the case of YHSQDRYEFSSHITRGEHRFHTS [M22T], the protein stability index was found to be 2.06.

In the case of YHSQDRYEFSSHITRGEHRFHIS [M22I], the protein stability index amounted to 2.48.

In the case of YHSQDRYEFSSHITRGEHRFHYS [M22Y], the protein stability index was 1.56.

For the variant YHSQDRYEFSSHITRGEHRFHRS [M22R], the protein stability index came out at 1.99.

As for YHSQDRYEFSSHITRGEHRFHFS [M22F], the protein stability index was found to be 1.53.

As to YHSQDRYEFSSHITRGEHRFHGS [M22G], the protein stability index came to 3.65.

As for YHSQDRYEFSSHITRGEHRFHKS [M22K], the protein stability index came out at 1.46.

For the variant YHSQDRYEFSSHITRGEHRFHSS [M22S], the protein stability index stood at 2.03.
